Broadly, the Kd is the concentration at which binding is half-saturated.

Consider 1 molecule from US20240343816A1 (INSTITUTE OF HEALTH AND MEDICINE HEFEI COMPREHENSIVE …, published 2024).

The experiment has as its target T1, human-derived IL-6Rα protein (human, UniProt P08887 20-365, limits assumed).
T1 construct: Described only as 'soluble human IL-6Rα protein'; also called h-IL-6Rα; soluble human IL-6Rα protein
T1 sequence (looked up): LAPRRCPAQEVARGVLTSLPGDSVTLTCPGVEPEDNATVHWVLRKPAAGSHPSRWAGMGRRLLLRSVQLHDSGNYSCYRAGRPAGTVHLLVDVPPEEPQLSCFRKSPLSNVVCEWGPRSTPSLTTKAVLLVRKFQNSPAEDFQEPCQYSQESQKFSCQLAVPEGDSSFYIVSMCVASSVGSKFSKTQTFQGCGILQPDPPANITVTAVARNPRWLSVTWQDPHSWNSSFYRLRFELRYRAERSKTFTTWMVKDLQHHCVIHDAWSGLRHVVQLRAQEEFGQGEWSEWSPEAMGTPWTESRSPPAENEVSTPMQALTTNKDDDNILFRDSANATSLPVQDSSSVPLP
Kind of experiment: SPR, h-IL-6Rα immobilized on a CM5 chip, 2S3-3D as analyte at 250, 125, 62.5, 31.2 and 15.6 nM. Here is the method: The binding kinetics experiments for detecting antigen-antibody were carried out by Biocare Molecular Biological Interaction Platform. […] The binding time was set at 180 s/dissociation time at 200 s. The binding and dissociation of antigen and antibody were observed, and the data were analyzed by the corresponding analysis software.
(SPR reads the build-up and loss of mass on a sensor chip optically.)

B1: nanobody 2S3-3D (VHH)
VHH: QLQLVESGGGLVRPGGSLRLSCTIHGVTLDWYAVGWFRQAPGKEREGVSCISSSDGSTYYADSVKGRFTISRDNVKNTMYLQMNSLKPEDTAVYYCAMVFTTAQAMGVPFHDFEYDYWGPGTQVTVSS
notes: Alpaca-derived VHH expressed from pTT5 in 293F cells; also called anti-h-IL-6Rα nanobody; the nanobody
For B1, the affinity, expressed as Kd, was 6.33 nM.
